The text below walks through data of patent US20120277286A1, “COMPOSITIONS AND METHODS FOR THE TREATMENT OR PREVENTION OF MITOCHONDRIAL DISEASES” (The Government of the USA, as represented by the Secretary, …, priority 2009, published 2012).

The experiment relates to HeLa cells. Briefly: Parkin colocalization with mitochondria scored by confocal microscopy. It is filed as cell-based. The settings on record: for cells with Parkin localized to mitochondria: HeLa transfected with Flag-tagged Twinkle for 5 days; for recruitment of mutant YFP-Parkin to depolarized mitochondria / recruitment of mutant YFP-Parkin to mitochondria: HeLa; for recruitment of mutant YFP-Parkin to depolarized mitochondria: CCCP 1 hr; for recruitment of mutant YFP-Parkin to mitochondria: 10 μM CCCP, 24 hours. The procedure:
Cultured cells seeded in borosilicate chamber slides (Thermo Fisher Scientific) were transfected or cotransfected with YFP-Parkin, ECFP-Parkin, mCherry-Parkin, DsRed-Mito (Clontech Laboratories, Inc.), pcDNA3.1 (Invitrogen), vMIA, and/or Drp1K38A constructs using Fugene 6 (Roche). Parkin-myc was a gift from M. Cookson (National Institutes of Health, Bethesda, Md.). Cells were fixed 12-24 hours after transfection with 4% paraformaldehyde in PBS. Cells were stained with following primary antibodies: mouse monoclonal cytochrome c (BD), rabbit polyclonal Tom20 (Santa Cruz Biotechnology, Inc.), mouse monoclonal Parkin PRK8 (Santa Cruz Biotechnology, Inc.), rabbit polyclonal PMP70 (Invitrogen), and/or mouse monoclonal TRAP1 (Abcam); and with the following secondary antibodies: mouse and/or rabbit Alexa 488, 594, and 633 (Invitrogen). For assessment of mitochondrial membrane potential, cells were pulsed with 50 nM Mito-Tracker red (Invitrogen) for 15 min, washed, and incubated for an additional 10 minutes before fixation or imaging. For assessment of cell metabolic potential, cell nuclei were stained with Hoechst 33342 (Invitrogen).
Fixed cells and live cells in the FLIP assay were imaged using an inverted microscope (LSM510 Meta; Carl Zeiss, Inc.) with a 63×/1.4 oil DIC Plan Apo objective at 25° C. and 37° C., respectively. For the FLIP assay, a bleach region of interest (ROI) occupying approximately one eighth of the cell was positioned over a relatively mitochondria-free portion of the cytosol. Cells were alternately bleached (488 nm using a 30-mW argon laser at 75% power and 100% transmission for 150 iterations) and imaged (488 nm at 75% power and 2% transmission) for 10 minutes (—60 cycles over the length of the experiment). Two channel prebleach and postbleach images were obtained with 488 and 594 lasers to assess the position of mitochondria before and after bleaching. Circular ROIs with diameters of ˜1 and 5 μm, respectively, were placed over the mitochondria and cytosol of the target cell, and an ROI of 10 μm was placed over the control cell. Imaging of YFP-Parkin translocation in live HeLa cells was performed on a live cell imager system (UltraView LCI; PerkinElmer) at 35° C. with a 100×/1.45 α-Plan-Fluor objective.
Image contrast and brightness were adjusted in Photoshop (Adobe). Colocalization was assessed with line scans using MetaMorph (MDS Analytical Technologies). For analysis of mitochondrial membrane potential in cells, mitochondrial voxels in each image (the cytochrome c channel threshold was ≧400 au) were segregated into Parkin-positive (the YFP-Parkin channel threshold was ≧1,100 au) or Parkin-negative subsets, and MitoTracker intensity for each voxel was measured using Volocity software (Improvision). For each cell, the mean MitoTracker intensity per voxel was calculated for the Parkin-positive and Parkin-negative subsets. The difference in mean Mito-Tracker intensity between the Parkin-positive and Parkin-negative subsets was calculated using a paired t test. Western blotting HeLa cells stably expressing YFP-Parkin, HEK293 cells, and rat cortical neurons 2 days in vitro were harvested and fractionated as described previously (Karbowski et al., J. Cell Biol. 178: 71-84, 2007). Samples were run on SDS-PAGE and immunoblotted with the following antibodies: polyclonal rabbit anti-GFP (Invitrogen), mouse monoclonal anti-Parkin (PRK8), and mouse monoclonal anti-Porin 31HL (EMD).
Confocal microscopy of fixed samples, scoring of Parkin recruitment and Parkininduced mitophagy, and live cell imaging were performed as described previously (Narendra (2008) J Cell Biol 183: 795-803). Experiments in Mfn1/2 null cells were performed as described previously with minor modifications.
Confocal microscopy of fixed samples, scoring of Parkin recruitment and Parkin-induced mitophagy, and live cell imageing were performed as described previously (Narendra (2008) J Cell Biol 183: 795-803). […]

B1: Twinkle G575D: catalytically inactive mutant of mitochondrial DNA helicase Twinkle, Flag-tagged (protein, UniProt Q96RR1 32-684, looked up, variant G575D)
Twinkle mtDNA helicase: APGPPRRRYRKETLQALDMPVLPVTATEIRQYLRGHGIPFQDGHSCLRALSPFAESSQLKGQTGVTTSFSLFIDKTTGHFLCMTSLAEGSWEDFQASVEGRGDGAREGFLLSKAPEFEDSEEVRRIWNRAIPLWELPDQEEVQLADTMFGLTKVTDDTLKRFSVRYLRPARSLVFPWFSPGGSGLRGLKLLEAKCQGDGVSYEETTIPRPSAYHNLFGLPLISRRDAEVVLTSRELDSLALNQSTGLPTLTLPRGTTCLPPALLPYLEQFRRIVFWLGDDLRSWEAAKLFARKLNPKRCFLVRPGDQQPRPLEALNGGFNLSRILRTALPAWHKSIVSFRQLREEVLGELSNVEQAAGLRWSRFPDLNRILKGHRKGELTVFTGPTGSGKTTFISEYALDLCSQGVNTLWGSFEISNVRLARVMLTQFAEGRLEDQLDKYDHWADRFEDLPLYFMTFHGQQSIRTVIDTMQHAVYVYDICHVIIDNLQFMMGHEQLSTDRIAAQDYIIGVFRKFATDNNCHVTLVIHPRKEDDDKELQTASIFDSAKASQEADNVLILQDRKLVTGPGKRYLQVSKNRFDGDVGVFPLEFNKNSLTFSIPPKNKARLKKIKDDTGPVAKKPSSGKKGATTQNSEICSGQAPTPDQPDTSKRSK
modifications: Flag tag
Consider B1, for which the “cells with Parkin localized to mitochondria” value is 13.1±2.3%.

B2: wild-type Twinkle: Flag-tagged wild-type mitochondrial DNA helicase Twinkle (protein, UniProt Q96RR1 32-684, looked up)
Twinkle mtDNA helicase: APGPPRRRYRKETLQALDMPVLPVTATEIRQYLRGHGIPFQDGHSCLRALSPFAESSQLKGQTGVTTSFSLFIDKTTGHFLCMTSLAEGSWEDFQASVEGRGDGAREGFLLSKAPEFEDSEEVRRIWNRAIPLWELPDQEEVQLADTMFGLTKVTDDTLKRFSVRYLRPARSLVFPWFSPGGSGLRGLKLLEAKCQGDGVSYEETTIPRPSAYHNLFGLPLISRRDAEVVLTSRELDSLALNQSTGLPTLTLPRGTTCLPPALLPYLEQFRRIVFWLGDDLRSWEAAKLFARKLNPKRCFLVRPGDQQPRPLEALNGGFNLSRILRTALPAWHKSIVSFRQLREEVLGELSNVEQAAGLRWSRFPDLNRILKGHRKGELTVFTGPTGSGKTTFISEYALDLCSQGVNTLWGSFEISNVRLARVMLTQFAEGRLEDQLDKYDHWADRFEDLPLYFMTFHGQQSIRTVIDTMQHAVYVYDICHVIIDNLQFMMGHEQLSTDRIAAQDYIIGVFRKFATDNNCHVTLVIHPRKEDDDKELQTASIFGSAKASQEADNVLILQDRKLVTGPGKRYLQVSKNRFDGDVGVFPLEFNKNSLTFSIPPKNKARLKKIKDDTGPVAKKPSSGKKGATTQNSEICSGQAPTPDQPDTSKRSK
modifications: Flag tag
Consider B2, for which the “cells with Parkin localized to mitochondria” value is 6.7±1.2%.

B3: C253Y: YFP-Parkin patient mutation in conserved RING cysteine (protein, UniProt O60260 1-465, looked up, variant C253Y)
E3 ubiquitin-protein ligase …: MIVFVRFNSSHGFPVEVDSDTSIFQLKEVVAKRQGVPADQLRVIFAGKELRNDWTVQNCDLDQQSIVHIVQRPWRKGQEMNATGGDDPRNAAGGCEREPQSLTRVDLSSSVLPGDSVGLAVILHTDSRKDSPPAGSPAGRSIYNSFYVYCKGPCQRVQPGKLRVQCSTCRQATLTLTQGPSCWDDVLIPNRMSGECQSPHCPGTSAEFFFKCGAHPTSDKETSVALHLIATNSRNITCITCTDVRSPVLVFQYNSRHVICLDCFHLYCVTRLNDRQFVHDPQLGYSLPCVAGCPNSLIKELHHFRILGEEQYNRYQQYGAEECVLQMGGVLCPRPGCGAGLLPEPDQRKVTCEGGNGLGCGFAFCRECKEAYHEGECSAVFEASGTTTQAYRVDERAAEQARWEAASKETIKKTTKPCPRCHVPVEKNGGCMHMKCPQPQCRLEWCWNCGCEWNRVCMGDHWFDV
modifications: YFP fusion
notes: YFP-Parkin patient mutation in conserved RING cysteine
With B3, the “recruitment of mutant YFP-Parkin to depolarized mitochondria” value (“recruitment … to depolarized mitochondria” below) was “completely disrupt”.

B4: C441R: YFP-Parkin patient mutation in conserved RING cysteine (protein, UniProt O60260 1-465, looked up, variant C441R)
E3 ubiquitin-protein ligase …: MIVFVRFNSSHGFPVEVDSDTSIFQLKEVVAKRQGVPADQLRVIFAGKELRNDWTVQNCDLDQQSIVHIVQRPWRKGQEMNATGGDDPRNAAGGCEREPQSLTRVDLSSSVLPGDSVGLAVILHTDSRKDSPPAGSPAGRSIYNSFYVYCKGPCQRVQPGKLRVQCSTCRQATLTLTQGPSCWDDVLIPNRMSGECQSPHCPGTSAEFFFKCGAHPTSDKETSVALHLIATNSRNITCITCTDVRSPVLVFQCNSRHVICLDCFHLYCVTRLNDRQFVHDPQLGYSLPCVAGCPNSLIKELHHFRILGEEQYNRYQQYGAEECVLQMGGVLCPRPGCGAGLLPEPDQRKVTCEGGNGLGCGFAFCRECKEAYHEGECSAVFEASGTTTQAYRVDERAAEQARWEAASKETIKKTTKPCPRCHVPVEKNGGCMHMKCPQPQRRLEWCWNCGCEWNRVCMGDHWFDV
modifications: YFP fusion
notes: as for B3
Regarding B4, the “recruitment of mutant YFP-Parkin to mitochondria” value is recorded as “Mitochondrial recruitment was seen” and the “recruitment … to depolarized mitochondria” value is listed as “completely disrupt”.

B5: C289G: YFP-Parkin patient mutation in conserved RING cysteine (protein, UniProt O60260 1-465, looked up, variant C289G)
E3 ubiquitin-protein ligase …: MIVFVRFNSSHGFPVEVDSDTSIFQLKEVVAKRQGVPADQLRVIFAGKELRNDWTVQNCDLDQQSIVHIVQRPWRKGQEMNATGGDDPRNAAGGCEREPQSLTRVDLSSSVLPGDSVGLAVILHTDSRKDSPPAGSPAGRSIYNSFYVYCKGPCQRVQPGKLRVQCSTCRQATLTLTQGPSCWDDVLIPNRMSGECQSPHCPGTSAEFFFKCGAHPTSDKETSVALHLIATNSRNITCITCTDVRSPVLVFQCNSRHVICLDCFHLYCVTRLNDRQFVHDPQLGYSLPGVAGCPNSLIKELHHFRILGEEQYNRYQQYGAEECVLQMGGVLCPRPGCGAGLLPEPDQRKVTCEGGNGLGCGFAFCRECKEAYHEGECSAVFEASGTTTQAYRVDERAAEQARWEAASKETIKKTTKPCPRCHVPVEKNGGCMHMKCPQPQCRLEWCWNCGCEWNRVCMGDHWFDV
modifications: YFP fusion
notes: as for B3
Take B5: the “recruitment of mutant YFP-Parkin to mitochondria” value is recorded as “Mitochondrial recruitment was seen” and the “recruitment … to depolarized mitochondria” value is recorded as “completely disrupt”.
